Assays:
HLA-A*03:01 = molecular target: T1, HLA-A*03:01 (human); assay: UV-ligand exchange, anti-b2m ELISA; exchange yield grade (+ >10%, ++ >20%, +++ >50, ++++ >75%)
T1 construct: Peptide-receptive MHC monomer made by UV cleavage of a UV-sensitive peptide
Description: (§1) Candidate peptides for T cell based therapies according to the present invention were further tested for their MHC binding capacity (affinity). The individual peptide-MHC complexes were produced by UV-ligand exchange, where a UV-sensitive peptide is cleaved upon UV-irradiation, and exchanged with the peptide of interest as analyzed. Only peptide candidates that can effectively bind and stabilize the peptide-receptive MHC molecules prevent dissociation of the MHC complexes. To determine the yield of the exchange reaction, an ELISA was performed based on the detection of the light chain (β2m) of stabilized MHC complexes. The assay was performed as generally described in Rodenko et al. (Rodenko et al., 2006).
(§2) 96 well MAXISorp plates (NUNC) were coated over night with 2 ug/ml streptavidin in PBS at room temperature, washed 4× and blocked for 1 h at 37° C. in 2% BSA containing blocking buffer. Refolded HLA-A*02:01/MLA-001 monomers served as standards, covering the range of 15-500 ng/ml. Peptide-MHC monomers of the UV-exchange reaction were diluted 100-fold in blocking buffer. Samples were incubated for 1 h at 37° C., washed four times, incubated with 2 ug/ml HRP conjugated anti-β2m for 1 h at 37° C., washed again and detected with TMB solution that is stopped with […]. Absorption was measured at 450 nm. Candidate peptides that show a high exchange yield (preferably higher than 50%, most preferred higher than 75%) are generally preferred for a generation and production of antibodies or fragments thereof, and/or T cell receptors or fragments thereof, as they show sufficient avidity to the MHC molecules and prevent dissociation of the MHC complexes.

HLA-A*01:01 = molecular target: T2, HLA-A*01:01 (human); assay: as above
T2 construct: Peptide-receptive MHC monomer made by UV cleavage of a UV-sensitive peptide
Description: as §1, §2

Binder	peptide exchange yield (HLA-A*03:01)	peptide exchange yield (HLA-A*01:01)
AVLDLGSLLAK	50 to 75%	–
SVKLQGTSK	20 to 50%	–
STTKLYLAK	20 to 50%	–
YTHHLFIFY	–	10 to 20%
KMAAWPFSR	50 to 75%	–
LMKEVMEHY	–	20 to 50%
STSHHLVSR	20 to 50%	–
VSNGKWLLY	–	50 to 75%
TVASLHTEK	20 to 50%	–
ATALSLSNK	50 to 75%	–
ATAYGSTVSK	20 to 50%	–
LDSHIHAY	–	10 to 20%
KLGNNPVSK	20 to 50%	–
MLLQQPLIY	20 to 50%	–
KVLGPNGLLK	20 to 50%	–
KSFDRHFEK	50 to 75%	–
QLYSKFLLK	50 to 75%	–
QVPTFTIPK	20 to 50%	–
RLFESSFHY	50 to 75%	–
LTDYLKNTY	–	50 to 75%
LPSPTDSNFY	–	20 to 50%
RIYNGIGVSR	50 to 75%	–
KLFGTSGQK	50 to 75%	–
TASEDVFQY	–	10 to 20%
YTDKLQHY	–	50 to 75%
STDEITTRY	–	50 to 75%
KTYVGHPVKM	50 to 75%	–

Binder	peptide exchange yield (HLA-A*03:01)	peptide exchange yield (HLA-A*01:01)
AVATKFVNK	20 to 50%	–
STNNEGNLK	20 to 50%	–
STKSTSPPK	20 to 50%	–
GSRLGKYYVK	10 to 20%	–
ITAQNHGY	–	20 to 50%
EVSNGKWLLY	–	50 to 75%
RSDPVTLDV	–	50 to 75%
RSDPVTLNV	–	50 to 75%
GSYSALLAKK	50 to 75%	–
LSLIDRLVLY	–	20 to 50%
TLEQVQLYY	–	50 to 75%
GSTMVEHNY	–	20 to 50%
ALDKPGKSK	20 to 50%	–
ATYEGIQKK	20 to 50%	–
SAFGYVFPK	50 to 75%	–
EVLDSHIHAY	–	10 to 20%
TAYGSTVSK	50 to 75%	–
LSAGSGPGQY	–	50 to 75%
SSYSRSSAVK	50 to 75%	–
ATWSASLKNK	50 to 75%	–
KTPSGALHRK	20 to 50%	–
ITFGERFEY	–	50 to 75%
SSASLAHMK	20 to 50%	–
STDIGALMY	–	50 to 75%
LTDYINANY	–	50 to 75%
VLGPNGLLK	20 to 50%	–
YTERDGSAMVY	–	50 to 75%

Source: patent US20180291082A1 (IMMATICS BIOTECHNOLOGIES, published 2018)
